# From PMC10897327
# How the values were obtained:
# Assay in all cases: native gel or EMSA; NativePAGE 3-12% Bis-Tris gel with Coomassie G-250, immunoblot for 52K; purified MBP-52K fusion proteins with or without TEV protease cleavage for 1 h at room temperature
# [1] = target: MBP-52K fusion protein, S28/75A (MBP tag not removed) (human adenovirus type C5 (Ad5))
# [2] = target: recombinant 52K S28/75A released from MBP-52K by TEV protease (human adenovirus type C5 (Ad5))
# [3] = target: MBP-52K fusion protein, wild type (MBP tag not removed) (human adenovirus type C5 (Ad5))
# [4] = target: recombinant 52K S28/75D released from MBP-52K by TEV protease (human adenovirus type C5 (Ad5))
# [5] = target: recombinant WT 52K released from MBP-52K by TEV protease (human adenovirus type C5 (Ad5))
# [6] = target: MBP-52K fusion protein, S28/75D (MBP tag not removed) (human adenovirus type C5 (Ad5))
substance,measurement,setting,value
"MBP-52K fusion protein, S28/75A (MBP tag not removed) (natural protein)",stoichiometry N,[1],2
recombinant 52K S28/75A released from MBP-52K by TEV protease (natural protein),stoichiometry N,[2],2
"MBP-52K fusion protein, wild type (MBP tag not removed) (natural protein)",stoichiometry N,[3],2
recombinant 52K S28/75D released from MBP-52K by TEV protease (natural protein),stoichiometry N,[4],2
recombinant WT 52K released from MBP-52K by TEV protease (natural protein),stoichiometry N,[5],2
"MBP-52K fusion protein, S28/75D (MBP tag not removed) (natural protein)",stoichiometry N,[6],2
